One may read the Kd as a measure of binding affinity in units of concentration. As usually defined, the koff is a measure of how fast the partners let go of each other. The kon is the second-order rate constant of association.

From patent US20180127493A1 come the findings set out here.

For assay [1], the target named is recombinant human VEGF165 (PeproTech EC Ltd.) (human) (UniProt P15692). The assay can be described thus: SPR, BIAcore T100, hVEGF165 amine-coupled on CM4 chip, scFv as analyte. On the technique in general: SPR reads the build-up and loss of mass on a sensor chip optically.
In assay [2] the target is Human TNFα N-his trimers (human) (UniProt P01375). The assay can be described thus: SPR, BIAcore T100, His-tagged human TNFα trimers captured on NTA chip, scFv as analyte.
The target of assay [3] is VEGF (as used in the VEGFR competition ELISA). The assay can be described thus: competition ELISA, VEGF binding to hVEGFR1; ratio to reference Luc. For orientation: An ELISA detects its analyte on a solid surface through an enzyme-linked reagent.
VEGF (as used in the VEGFR competition ELISA), sequence (P15692 whole entry): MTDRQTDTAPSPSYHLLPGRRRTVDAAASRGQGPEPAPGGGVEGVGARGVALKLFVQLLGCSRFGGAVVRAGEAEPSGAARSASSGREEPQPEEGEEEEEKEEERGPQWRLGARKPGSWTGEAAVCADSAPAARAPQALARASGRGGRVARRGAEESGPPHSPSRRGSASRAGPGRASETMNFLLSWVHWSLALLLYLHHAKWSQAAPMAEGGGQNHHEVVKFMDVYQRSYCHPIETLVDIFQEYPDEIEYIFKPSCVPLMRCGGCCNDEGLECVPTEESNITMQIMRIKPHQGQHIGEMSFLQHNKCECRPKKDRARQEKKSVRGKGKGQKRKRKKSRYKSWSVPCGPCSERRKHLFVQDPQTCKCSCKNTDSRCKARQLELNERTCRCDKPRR

recombinant human VEGF165 (PeproTech EC Ltd.) (human), sequence (P15692 other isoform, or with tags, fused parts or gaps limits assumed): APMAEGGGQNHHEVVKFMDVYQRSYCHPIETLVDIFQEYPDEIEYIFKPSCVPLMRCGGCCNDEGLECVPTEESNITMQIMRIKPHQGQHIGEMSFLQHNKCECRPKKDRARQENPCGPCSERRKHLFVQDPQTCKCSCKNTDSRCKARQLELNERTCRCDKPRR
Human TNFα N-his trimers (human), sequence (P01375 77-233 limits assumed): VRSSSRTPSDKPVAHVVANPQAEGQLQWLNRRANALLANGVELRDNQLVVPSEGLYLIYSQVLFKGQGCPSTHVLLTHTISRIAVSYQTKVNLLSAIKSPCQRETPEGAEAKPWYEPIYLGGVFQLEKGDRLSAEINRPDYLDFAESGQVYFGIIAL

B1: 578-max (scFv, from a related filing, part only)
scFv: EIVMTQSPSTLSASVGDRVIITCQASEIIHSWLAWYQQKPGKAPKLLIYLASTLASGVPSRFSGSGSGTQFTLTISSLQPDDFATYYCQNVYLASTNGANFGQGTKLTVLGGGGGSGGGGSGGGGSGGGGSEVQLVESGGGLVQPGGSLRLSCTASGFSLTDYYYMTWVRQAPGKGLEWVGFIDPDDDPYYATWAKGRFTISRDTSKNTVYLQMNSLRAEDTAVYYCAGGDHNSGWGLDIWGQGTLVTVSS
Consider B1, for which, in assay [1], the Kd stood at 0.439 nM, the koff is 0.000307 s⁻¹ and the kon is 700000 M⁻¹ s⁻¹.

B2: EP43_min (scFv)
scFv: EIVMTQSPSTLSASVGDRVIITCQASQSISDWLAWYQQKPGKAPKLLIYGASRLASGVPSRFSGSGSGAEFTLTISSLQPDDFATYYCQQGWSDSYVDNLFGQGTKLTVLGGGGGSGGGGSGGGGSGGGGSEVQLVESGGGLVQPGGSLRLSCAASGFSLSSGAMSWVRQAPGKGLEWVSVIISSGATYYASWAKGRFTISRDNSKNTLYLQMNSLRAEDTAVYYCAKGGPDDSNSMGTFDPWGQGTLVTVSS
In the case of B2, the dissociation constant (Kd) in assay [2] is 5540 nM.

B3: 511-max (scFv, from a related filing, part only)
scFv: EIVMTQSPSTLSASVGDRVIITCQASQSINIWLSWYQQKPGKAPKLLIYRASTLASGVPSRFSGSGSGTEFTLTISSLQPDDFATYYCQANYAYSAGYGAAFGQGTKLTVLGGGGGSGGGGSGGGGSGGGGSEVQLVESGGGLVQPGGSLRLSCTVSGFSLNTYYMNWVRQAPGKGLEWVGIIAPDDTTYYASWAKSRSTISRDTSKNTVYLQMNSLRAEDTAVYYCARSGDTTAWGADIWGQGTLVTVSS
On to B3, for which, in assay [1], the Kd is 0.0667 nM, the koff stood at 4.4e-05 s⁻¹ and the kon came to 659000 M⁻¹ s⁻¹. Besides, the Rel. activity hVEGR1 comp. ELISA (EC50Luc [nM]/EC50test [nM]) in assay [3] was 8.
